Data on one molecule can be found in patent US7176008 (MERCK, dated 2007).

Assay [1] addresses T1, activated thrombin-activatable fibrinolysis inhibitor (human TAFIa) (human, UniProt Q96IY4 115-423).
T1 construct: Purified from human serum in the presence of 5 mM epsilon-aminocaproic acid; also called carboxypeptidase U
T1 sequence (looked up): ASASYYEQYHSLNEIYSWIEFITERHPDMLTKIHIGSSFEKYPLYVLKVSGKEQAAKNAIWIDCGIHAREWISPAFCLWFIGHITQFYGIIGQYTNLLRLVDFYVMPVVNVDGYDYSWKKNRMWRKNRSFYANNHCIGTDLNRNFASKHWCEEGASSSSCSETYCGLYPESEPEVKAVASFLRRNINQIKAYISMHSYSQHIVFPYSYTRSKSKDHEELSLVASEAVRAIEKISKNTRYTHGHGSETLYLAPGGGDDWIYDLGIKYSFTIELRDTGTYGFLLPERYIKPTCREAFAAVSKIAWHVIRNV

For assay [2], the target named is T2, human carboxypeptidase B (human, UniProt P15086 111-417).
T2 construct: also called CPB
T2 sequence (looked up): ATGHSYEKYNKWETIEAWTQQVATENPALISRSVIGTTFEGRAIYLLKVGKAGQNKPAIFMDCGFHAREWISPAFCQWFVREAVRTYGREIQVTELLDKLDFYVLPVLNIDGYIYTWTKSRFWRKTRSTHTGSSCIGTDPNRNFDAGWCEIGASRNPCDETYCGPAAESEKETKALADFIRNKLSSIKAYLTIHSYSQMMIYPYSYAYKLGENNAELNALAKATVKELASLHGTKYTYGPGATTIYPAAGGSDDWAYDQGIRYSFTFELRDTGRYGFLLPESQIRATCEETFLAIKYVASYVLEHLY

For the molecule QQHADPICNKPCKTHDDCSGAWFCQACWNSARTCGPYVG (peptide, UniProt P01075 1-39, looked up, also called PCI) [potato carboxypeptidase inhibitor], the binding result in assay [1] and in assay [2] was “binds” throughout.
